Test results as given in publication PMC3239194.

Tests used:
[1] = biological target: I-Bth0305I full-length enzyme containing a catalytically inactivating D222N mutation (Bacillus thuringiensis 0305ϕ8–36 bacteriophage); assay: SEC
[2] = biological target: I-Bth0305I isolated catalytic domain containing a D196A mutation (Bacillus thuringiensis 0305ϕ8–36 bacteriophage); assay: SEC

Row | Substance | stoichiometry N [1] | stoichiometry N [2]
1 | I-Bth0305I full-length enzyme containing a catalytically inactivating D222N mutation | 2 | –
2 | I-Bth0305I isolated catalytic domain containing a D196A mutation (domain or fragment) | – | 2
